How the values were obtained:
Experiment in all cases: GST pull-down, 35S-Met protein vs GST fusion; - means no detectable binding (footnote a)
[1] = biological target: T1, GST (glutathione-S transferase alone) (UniProt P08515 1-218 = GST)
T1 construct: Purified GST used as negative control bait on glutathione sepharose beads; also called OST
Procedure, shortened: (§1)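 GST alone or GST fusions (5 μg) on glutathione beads incubated 2 hours at 4° C. with in vitro translated ³⁵S-Met-labeled proteins; bound protein by 12% SDS-PAGE and autoradiography. Scored against background binding of ³⁵S-luciferase to GST fusions and of labeled proteins to GST.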

GST-CPS-6 = biological target: T2, GST-CPS-6 (C. elegans, UniProt Q95NM6 1-308)
T2 construct: GST at the N-terminus as in pGEX vectors; also called CPS-6 GST-fusion protein; not shown: glutathione S-transferase tag encoded by vector pGEX4T-2
T2 sequence (looked up): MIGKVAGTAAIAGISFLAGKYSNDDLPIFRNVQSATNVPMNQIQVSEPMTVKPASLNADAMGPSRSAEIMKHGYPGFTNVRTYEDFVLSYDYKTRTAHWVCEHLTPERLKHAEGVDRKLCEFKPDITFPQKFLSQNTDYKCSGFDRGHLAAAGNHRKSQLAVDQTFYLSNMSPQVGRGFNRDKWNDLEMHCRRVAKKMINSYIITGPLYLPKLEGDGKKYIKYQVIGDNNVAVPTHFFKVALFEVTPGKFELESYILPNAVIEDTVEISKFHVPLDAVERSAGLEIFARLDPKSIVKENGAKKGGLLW
Procedure, shortened: as §1

GST-CRN-5 = biological target: T3, GST-CRN-5 (C. elegans, UniProt G5EG59 1-214)
T3 construct: also called CRN-5 GST-fusion protein; not shown: GST carrier and the linker of vector pGEX4T-2
T3 sequence: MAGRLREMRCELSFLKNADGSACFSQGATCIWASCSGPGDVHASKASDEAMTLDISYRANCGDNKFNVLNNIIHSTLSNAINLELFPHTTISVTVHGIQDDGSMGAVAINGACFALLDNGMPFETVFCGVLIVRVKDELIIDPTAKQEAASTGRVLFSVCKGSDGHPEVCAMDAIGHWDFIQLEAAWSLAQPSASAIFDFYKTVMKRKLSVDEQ
Procedure, shortened: as §1

GST-CRN-6 = biological target: T4, GST-CRN-6 (C. elegans, UniProt P08515 1-218 = GST; P34508 1-373)
T4 construct: Two crn-6 cDNAs (700 bp and 1.1 kb) were isolated; the longer one made the GST fusion; also called CRN-6 GST-fusion protein
T4 sequence (P08515 1-218, tags or fused parts left off): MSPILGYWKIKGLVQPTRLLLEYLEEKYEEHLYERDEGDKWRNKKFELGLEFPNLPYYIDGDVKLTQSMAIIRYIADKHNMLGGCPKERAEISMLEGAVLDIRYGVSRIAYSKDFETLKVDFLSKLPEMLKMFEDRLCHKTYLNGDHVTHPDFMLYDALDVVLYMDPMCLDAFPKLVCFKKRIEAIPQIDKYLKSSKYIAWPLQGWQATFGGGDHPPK
Procedure, shortened: as §1

T1 sequence (P08515 whole entry): as the sequence (P08515 1-218, tags or fused parts left off) above

binding result [1]: no binding
binding result (GST-CPS-6): no binding
binding result (GST-CRN-5): no binding
binding result (GST-CRN-6): no binding
B1: ^35S-Methionine labeled CRN-2 (enzyme, C. elegans)
chain: MALYELVDIGANLGHPSYQKDLNDVLDRAKQAGLSKIMVTGTSEKISHECADLVEKYPGFLYFTAGVHPHDAKDWNDGTLEALKKLQENPSCVAVGECGLDFNRNFSPQDVQKEVFAKQVDMAVKLQKPLFIHEREAHEDMVKILTAAGPSLPPAVIHCFTGTVVEAKKYLEMGFYIGLTGFLWKDRSDNGVQAGLRSGEIPIEKLVLETDAPYMYPKINDKKIPKEIKSLITPETEALHNFSSFNRNEPCSLAAVCELVAAFAGRDPKEVAKITTENAKKVYKLE

— US20050142568A1 (published 2005)
